Here are results for 167 variants from the RNAGym collection of RNA variant scans (doi:10.7554/elife.80360).

The chains are these.
B1: HDV Ribozyme (parent)
chain: GGCCGGCAUGGUCCCAGCCUCCUCGCUGGCGCCGGCUGGGCAACAUUCCGAGGGGACCGUCCCCUCGGUAAUGGCGAAUGGGACCCA

In the series the parent is B1. The series can be described thus: self-cleavage, relative activity (ratio to wild type); higher = more cleavage; co-transcriptional.
Take C36A G59U: the self-cleavage amounted to 0.138.
Regarding U46A G73A, the self-cleavage came to 0.554.
As for G40U U47G, the figure is 0.46; as for G52U A77C, 0.54.
Turning to A16C C49A, the self-cleavage came out at 0.609.
For the variant C13A G39C, the self-cleavage amounted to 0.0554.
For G10A G54C, the self-cleavage came to 0.582.
As for G55C G73U, the figure is 0.277; as for G31C C41G, 0.269.
To U23G C36G belongs 0.252; to U20C U27G, 0.185; to G39U G67A, 0.698.
To G2C C4A belongs 0.0282; to G5C G35U, 0.0308; to G5A C63G, 0.0755.
G39A C62A: the self-cleavage was 0.554.
As for C26A U27C, the figure is 1.04; as for A16G C21U, 0.0615.
As for C13G G80U, the figure is 0.0475.
To G17A G28U belongs 0.122; to G17C G28C, 0.125; to G38A U47A, 0.0594.
In the case of A45G A83C, the self-cleavage stood at 0.482.
As to C36U C57G, the self-cleavage is 0.79.
As to U9A G39C, the self-cleavage turned out to be 0.178.
With G35C A45U, the self-cleavage amounted to 0.122.
To G11A C36A belongs 0.0446.
As for G6U C66U, the figure is 0.645; as for A42U U46A, 0.443; as for G55A C75U, 0.208.
As for C3A C33A, the figure is 0.0698.
As for U12C C85G, the self-cleavage was found to be 0.447.
To G35A A56G belongs 0.769.
To G55U C64A belongs 0.94; to U47C G76C, 0.931.
As for A16U A45C, the self-cleavage is 0.462.
As for A8G A16U, the self-cleavage was 0.895.
To U37A U79A belongs 0.246.
As for U23G G67U, the figure is 0.789; as for G5U G39A, 0.217; as for C4G A56U, 0.462.
As for C22A U27A, the figure is 0.0573; as for C19A A78U, 0.138.
In the case of G31A A43U, the self-cleavage came out at 0.128.
As for U9A A43G, the figure is 0.712.
U9C A78C: the self-cleavage was found to be 0.128.
In the case of C3G C49G, the self-cleavage came out at 0.523.
Regarding U69A G74U, the self-cleavage was 0.665.
Regarding C15A G67C, the self-cleavage amounted to 0.782.
As for C21A C66A, the figure is 0.0755.
To G5C C15G belongs 0.249; to C24A C48A, 0.717.
On to G1U C64G, for which the self-cleavage worked out at 0.432.
Take C14A G52C: the self-cleavage is 0.782.
On to C18U U65A, for which the self-cleavage was 0.635.
As for C19G G40U, the figure is 0.0997; as for U27C G53C, 0.898.
U27C G53A: the self-cleavage came to 0.696.
As for A70C U79C, the figure is 0.18; as for A16U U65C, 0.965.
Turning to U20A G76C, the self-cleavage was determined as 0.
As to C3U G73U, the self-cleavage came to 0.257.
For U60A A83G, the self-cleavage stood at 1.04.
For G6C G55U, the self-cleavage is 0.177.
Consider G1C U72A, for which the self-cleavage amounted to 0.32.
Turning to G38A C44G, the self-cleavage amounted to 0.0449.
With U37A A83G, the self-cleavage turned out to be 0.115.
As for G17U C48G, the self-cleavage stood at 0.482.
As for G6A C64A, the figure is 0.869.
On to C13U C14A, for which the self-cleavage is 0.155.
To C26U G68C belongs 1.03.
As to U12A C58A, the self-cleavage stood at 0.312.
To C13A A71G belongs 0; to C7A C44G, 0.0594.
As for G40A A70G, the figure is 0.914; as for A8U G25C, 0.277; as for A16C C48A, 0.987.
As for G25A C61A, the figure is 0.201; as for G17A G25U, 0.0277; as for U12G A16C, 0.831.
With A16G C62U, the self-cleavage was found to be 1.13.
As for C3A C26A, the figure is 0.795.
As for C15A C84U, the figure is 0.665; as for G5U U60A, 0.447.
For the variant C33A C61A, the self-cleavage was 0.281.
For the variant G1C C33A, the self-cleavage was found to be 0.222.
To C22U G54U belongs 0.808; to C33A C44A, 0; to G29C G81U, 0.
As for G40C U65G, the figure is 0.237.
As for C24G C33U, the figure is 0.104; as for G11U C32G, 0.0767; as for C24G C84G, 0.0811.
As to C49G A83G, the self-cleavage came to 0.378.
To A16U C86G belongs 0.853.
Take G17U U69C: the self-cleavage worked out at 0.869.
As for G5A C15U, the figure is 0.0475.
As for C15A C24G, the figure is 0.032; as for G50U G53U, 0.735.
As for C26A G74U, the figure is 0.519; as for C21U C64U, 0.17; as for G55A U65C, 0.863.
As for C19A A42G, the self-cleavage worked out at 0.0811.
To G6C G82C belongs 0.0405; to C62A G81C, 0.138.
On to A16U G34C, for which the self-cleavage came to 0.369.
To A16U C22G belongs 0.161; to G50A C62G, 0.219.
Take C32A G68U: the self-cleavage was 0.0906.
As for C61U C86A, the figure is 0.812; as for U60C A78G, 0.935.
As for U47A G59U, the self-cleavage turned out to be 0.933.
To G52C C86A belongs 0.997.
To A8U C62A belongs 0.956.
To G11A U23C belongs 0.353; to A16C G82A, 0.72; to G39A G54U, 0.517.
With U27G G54C, the self-cleavage amounted to 0.914.
A45U C62G: the self-cleavage came out at 0.798.
For the variant G52U U79C, the self-cleavage is 0.59.
As for U72G C84U, the figure is 0.386; as for C41G G73U, 0.378.
As for C33U A70G, the figure is 0.758; as for G2A C13A, 0.0231; as for G59A G67U, 0.918.
For the variant C19U U69C, the self-cleavage worked out at 0.0997.
To U72C C85U belongs 0.511; to C57G U65G, 0.85; to C58G U72C, 0.369.
As for C41U C84G, the figure is 0.589.
U20G C22A: the self-cleavage amounted to 0.185.
To C14U C41A belongs 1.06; to C36U G73U, 0.0692; to C64A G82C, 0.199.
C62G C84A: the self-cleavage is 0.712.
As for C3A G55C, the figure is 0.642.
As to G53U A71C, the self-cleavage was 0.538.
As for C32U A56U, the self-cleavage stood at 0.76.
As for G34A C44U, the figure is 0.0863; as for G34C G40C, 0.113.
As for C26A C30A, the self-cleavage amounted to 0.491.
Turning to C13U G35C, the self-cleavage turned out to be 0.166.
As for C4U C84G, the figure is 0.19; as for C66G G81U, 0.214.
As for U20C C85G, the figure is 0.0519.
To A70G U72A belongs 0.594.
Take C15U G73C: the self-cleavage was 0.429.
On to C49A G55A, for which the self-cleavage was 0.816.
For the variant G11C C62U, the self-cleavage was 0.271.
To A43G C62G belongs 0.415; to C62A C85U, 1.05.
As for U9C G67U, the self-cleavage was 1.12.
G1A C4G: the self-cleavage came to 0.123.
Consider G5C U46A, for which the self-cleavage was found to be 0.0639.
To C14A C15U belongs 0.192; to G1U U79A, 0.178.
Regarding G34C G80A, the self-cleavage came out at 0.138.
As for G2A G74C, the figure is 0.0811; as for G2U G11A, 0.0304; as for A42U G67U, 0.346.
To C7A G28C belongs 0.0615; to G38C G50A, 0.188.
Regarding C21U G39C, the self-cleavage was determined as 0.201.
To U9C G55A belongs 1.27; to U9C A77U, 0.867.
For the variant C30A G55A, the self-cleavage amounted to 0.472.
In the case of C33G G35A, the self-cleavage is 0.0604.
